In one experiment the target is HLA-A*2401 (human). Description: competition with a 125I-labelled probe peptide for purified HLA, gel filtration; binding relative to the standard peptide. Background: SEC sorts molecules by how far they enter the pores of the column.
For a further experiment, the target named is HLA-A*0301 (human). Description: competition with 125I-labelled probe peptide for purified HLA, gel filtration; value relative to standard peptide.

The record followed here is patent publication US20090311283A1.

As to “HBV ENV 177 8-mer peptide […] (peptide; other documents disagree on this pair)”, in the experiment with HLA-A*0201 (human), the binding affinity ratio (IC50 of standard peptide / IC50 of test peptide) was determined as 0.0019.

For “HBV ENV 177 9-mer peptide […] (peptide; other documents disagree on this pair)”, the binding affinity ratio (IC50 of standard peptide / IC50 of test peptide) with HLA-A*0201 (human) worked out at 0.066.

Consider “HBV ENV 177 10-mer peptide […] (peptide; other documents disagree on this pair)”, for which the binding affinity ratio (IC50 of standard peptide / IC50 of test peptide) with HLA-A*0201 (human) is 0.0011.

Take HBV ENV 362 peptide WYWGPSLY: the binding affinity ratio (IC50 of standard peptide / IC50 of test peptide) with HLA-A*2401 (human) came to 0.0001.

As to HBV POL 377 LWDFSQF (peptide), in the experiment with HLA-A*0301 (human), the binding affinity ratio (IC50 of standard peptide / IC50 of test peptide) amounted to 0.0016.

Take “[…] (HBV ENV 249, 15-mer) (peptide; other documents disagree on this pair)”: the binding affinity ratio (IC50 of standard peptide / IC50 of test peptide) was 0.0026 with HLA-DRB1*0101 (human); 0.0018 in the experiment with HLA-DRB1*1101 (human); 0.0047 in the experiment with HLA-DRB1*0701 (human); 0.032 with HLA-DRB1*0401 (human); 0.0069 with HLA-DRB5*0101 (human).
